What was measured:
[1] = target: T1, human LRP6 (low density lipoprotein receptor-related protein 6), full length on HEK293 cells (human, UniProt O75581 20-1613); assay: cell-based or functional assay
[2] = target: T2, LRP6 double mutant (K662A/K684A) on HEK293 cells (human, UniProt O75581 20-1613); assay: flow cytometry on transfected HEK293 cells
T2 construct: whole, on cells; Made by site-directed mutagenesis of the LRP6 construct in pCMV-Entry and transfected into HEK293 cells
Protocol: FIG. 1F is a graph showing fine epitope mapping by alanine scanning of LRP6 and the effect of the alanine substitutions on binding of the 66 antibody. LRP6 single mutants and the double mutant (K662A/K684A) were separately transfected into HEK293 cells. An anti-LRP6 scFv-Fc fusion that binds to the LRP6-P1 domain was used as a control to confirm cell surface expression of LRP6. Binding of the 66 antibody was determined by flow cytometry, and median fluorescence intensity (MFI) values were normalized against MFI of the P1-binding scFv-Fc.
To map the binding site further, the binding of the 66 antibody to LRP6 was modeled using a homology modeling-predicted structure for the 66 Fv and two known crystal structures of LRP6 (3S8Z and 4A0P: FIGS. 8A and 8B, respectively). Several potential 66 contact sites were identified on LRP6. Alanine scan mutagenesis was performed at those sites. Alanine mutants of LRP6 ectodomain were constructed using QuikChange Site-Directed Mutagenesis Kit (Agilent Technologies) according to the manufacturer's protocol. Binding of the 66 IgG to these LRP6 mutants was analyzed by flow cytometry. K662A and K684A single mutations caused a significant loss of 66 binding (FIG. 1F).

[3] = target: T1, human LRP6 (low density lipoprotein …); assay: flow cytometry titration of 66 IgG on HEK293 cells
Protocol: (§1) HEK293 cells were transfected with LRP6 expression plasmid and incubated with 66 or E34N19 scFv-phage for 1 hour. E34N19 was identified previously as a Wnt antagonist binding to the P3E3P4E4 domain (Lee et al., 2018). The E34N19 IgG was simultaneously added as a competitor. Bound phages were detected by sequential incubation of mouse anti-fd IgG and PE-labeled anti-mouse IgG. FIG. 7A is a graph showing the dissociation curve of the 66 antibody. HEK293 cells were incubated with varying concentrations of 66 IgG, and the binding was analyzed by flow cytometry. […] As a positive control, the E34N19E IgG competes with the E34N19E scFv-phage.
(§2) The apparent KD of antibodies was analyzed by FACS as described (Lee et al., 2018). Briefly, cells were trypsinized, washed, and resuspended in FACS buffer (PBS, 1% FBS). Antibodies serially diluted in FACS buffer were incubated with target cells (3×10⁵ cells/tube) overnight at 4° C. Cells were washed, incubated with Alexa Fluor® 647-labeled goat anti-human IgG (Jackson ImmunoResearch). 1 hour post incubation, cells were washed in PBS and analyzed using a BD Accuri C6 flow cytometer (BD Biosciences). Median Fluorescence Intensity (MFI) values were analyzed by curve fitting (GraphPad) to determine the affinity.

[4] = target: T3, recombinant mouse LRP6 extracellular domain (mouse, UniProt O88572 20-1370); assay: ELISA on recombinant mouse LRP6 extracellular domain
T3 construct: extracellular domain; also called mouse LRP6 ectodomain
T3 sequence (looked up): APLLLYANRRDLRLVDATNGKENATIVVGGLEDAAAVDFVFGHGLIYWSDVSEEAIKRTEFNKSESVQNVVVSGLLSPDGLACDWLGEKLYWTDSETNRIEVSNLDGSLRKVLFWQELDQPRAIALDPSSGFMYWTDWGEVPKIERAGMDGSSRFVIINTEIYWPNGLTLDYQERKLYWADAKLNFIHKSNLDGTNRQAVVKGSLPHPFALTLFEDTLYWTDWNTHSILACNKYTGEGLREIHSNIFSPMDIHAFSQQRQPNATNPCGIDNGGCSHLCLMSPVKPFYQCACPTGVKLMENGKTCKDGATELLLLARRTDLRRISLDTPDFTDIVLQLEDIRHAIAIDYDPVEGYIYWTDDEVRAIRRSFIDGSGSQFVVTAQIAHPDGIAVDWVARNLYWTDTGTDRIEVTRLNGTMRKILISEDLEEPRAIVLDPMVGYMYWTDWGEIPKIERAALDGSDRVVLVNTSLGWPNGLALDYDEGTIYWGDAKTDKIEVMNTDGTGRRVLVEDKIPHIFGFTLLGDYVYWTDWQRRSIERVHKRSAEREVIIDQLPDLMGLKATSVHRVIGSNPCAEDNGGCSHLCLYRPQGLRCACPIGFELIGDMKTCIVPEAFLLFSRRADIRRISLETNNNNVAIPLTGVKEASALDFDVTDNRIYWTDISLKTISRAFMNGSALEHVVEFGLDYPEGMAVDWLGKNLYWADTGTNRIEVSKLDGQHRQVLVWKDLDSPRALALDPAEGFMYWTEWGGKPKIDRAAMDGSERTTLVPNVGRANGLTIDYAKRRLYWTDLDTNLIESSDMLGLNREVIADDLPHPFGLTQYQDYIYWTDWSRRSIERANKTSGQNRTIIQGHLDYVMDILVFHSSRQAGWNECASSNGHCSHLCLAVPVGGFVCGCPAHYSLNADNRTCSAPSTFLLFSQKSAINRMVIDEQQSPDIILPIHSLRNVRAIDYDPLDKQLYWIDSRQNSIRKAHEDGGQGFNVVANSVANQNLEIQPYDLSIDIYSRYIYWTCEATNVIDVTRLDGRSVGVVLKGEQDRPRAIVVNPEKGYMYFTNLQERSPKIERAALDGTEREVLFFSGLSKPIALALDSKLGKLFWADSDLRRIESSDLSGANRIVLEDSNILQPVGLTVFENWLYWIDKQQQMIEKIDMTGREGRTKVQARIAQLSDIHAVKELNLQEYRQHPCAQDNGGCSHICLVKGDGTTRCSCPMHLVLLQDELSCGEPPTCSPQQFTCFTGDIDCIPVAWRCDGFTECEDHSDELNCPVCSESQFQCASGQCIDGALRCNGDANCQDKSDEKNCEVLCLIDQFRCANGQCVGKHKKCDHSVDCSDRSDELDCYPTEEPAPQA

[5] = target: T1, human LRP6 (low density lipoprotein …); assay: flow cytometry on HEK293 cells; apparent KD by curve fitting of MFI
Protocol: as §1, §2

EC50, STF reporter on HEK293 cells without Wnt ligands [1]: 13.4 nM | EC50, Wnt1-mediated beta-catenin signaling (STF reporter) with RSPO2 (5 nM) [1]: 1.8 nM | EC50, Wnt3a-mediated beta-catenin signaling (STF reporter) with RSPO2 (5 nM) [1]: 4.8 nM | binding result [2]: no binding | EC50 (read off the curve) [3]: ~5 nM | binding result [4]: binds | Kd [5]: ~5 nM
B1: 66 IgG (Wnt-agonist human monoclonal antibody 66) (antibody, V domains shown)
VH: QVQLLQSGGGLVQPGGSLRLSCAASGFTFSTYAMSWVRQAPGKGLEWVSTIGPSGSSTYYAYADSVKGRFTISRDNYKNMLYLQMNSLRAEDTAVYYCAKEGPNSGYFDFDYWGQGTLVTVSS
VL: EIVLTQSPSSLSASVGDRVTITCRASQSISTYLNWYQQKPGKAPKVLIYAASSLQSGVPSRISGSGSGTDFTLTISSLQPEDFATYYCQQSYSIPLTFGGGTKLEIK
notes: also called 66 antibody; agonist 66 IgG

— US20240254219A1 (University of California, published 2024)
